Biological target: Strep-tagged recombinant plasminogen activator inhibitor 1 (PAI-1) (human) (UniProt P05121)
Experiment: pull-down; affinity chromatography: purified Strep-tagged PAI-1 (75 µL, 100 µg/mL) immobilised on Strep-Tactin Sepharose gravity flow columns; 2.0 mL medium with untagged vitronectin loaded and incubated 1 h; six washes with Buffer W, elution with Buffer E; Western blot with densitometry

Chain of UniProt P05121 (P05121 24-402): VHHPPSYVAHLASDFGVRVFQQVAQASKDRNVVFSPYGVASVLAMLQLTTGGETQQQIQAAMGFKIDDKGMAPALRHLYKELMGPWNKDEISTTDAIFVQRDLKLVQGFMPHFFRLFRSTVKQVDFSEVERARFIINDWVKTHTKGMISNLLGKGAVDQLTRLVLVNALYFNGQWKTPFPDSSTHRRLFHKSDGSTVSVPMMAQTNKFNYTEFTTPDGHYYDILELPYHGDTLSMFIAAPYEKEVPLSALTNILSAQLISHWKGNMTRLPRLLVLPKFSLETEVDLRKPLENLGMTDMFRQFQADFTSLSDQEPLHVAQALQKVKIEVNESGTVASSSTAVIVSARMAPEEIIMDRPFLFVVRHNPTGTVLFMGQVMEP

fold of vitronectin in the elution fraction against VTN rs704: C: 2.28 fold
Substance: untagged vitronectin isoform VTN_rs704: T (AMD risk-associated, Met400) (natural protein)
